Measurements as given in PMC3942423 (Nature chemical biology, 2009).

Substrate: O=[N+]([O-])c1ccc(O[C@H]2O[C@H](CO)[C@@H](O)[C@H](O)[C@@H]2O)cc1
Experiment: 4NP-Man hydrolysis kinetics
Assay type: biochemical, Bacteroides thetaiotaomicron
Conditions: other: substrate 4NP-Man

B1: Bt3130 (Bacteroides thetaiotaomicron VPI-5482) (protein)
chain: GEITKYVNPFIGTGAIDGGLSGNNYPGATSPFGMIQLSPDTSEAPNWGDASGYDYNRNTIFGFSHTRLSGTGASDLIDITLMPTSSGRTSSAFTHDEEKARPGYYQVMLKDENINAELTTTQRNGIHRYQYPAGKDAEIILDMDHSADKGSWGRRIINSQIRILNDHAVEGYRIITGWAKLRKIYFYMEFSSPILTSTLRDGGRVHENTAVINGTNLHGCFRFGQLNGKPLTCKVALSSVSMENARQNMEQEAPHWDFDRYVAAADADWEKQLGKIEVKGTEVQKEIFYTALYHTMIQPNTMSDVNGEYMAADYTTRKVANNETHYTTFSLWDTFRASHPLYTLLEPERVTDFVKSMIRQYEYYGYLPIWQLWGQDNYCMIGNHSIPVITDAILKGIPGIDMEKAYEAVYNSSVTSHPNSPFEVWEKYGFMPENIQTQSVSITLEQAFDDWCVAQLAAKLNKDADYQRFHKRSEYYRNLFHPKTKFFQSKNDKGEWIEPFDPYQYGGNGGHPFTEGNAWQYFWYVPHNIQALMELTGGTKAFEQKLDTFFTSTYKSEQMNHNASGFVGQYAHGNEPSHHVAYLYNFAGQPWKTQKYVSHILNTLYNNTSSGYAGNDDCGQMSAWYVFSAMGFYPVNPADGRYIIGSPLLDECTLKLAGNKEFRIRTIRKSPEDIYIQSVTLNGKKHKDFFITHQDIMNGGTMVFKMGKKPSGWGK
**Q.** For B1, which Km (enzyme Bt3130, pH 7.0) is on record?
**A.** 0.51 ± 0.097 mM

**Q.** What about the kcat (enzyme Bt3130, pH 7.0) of the same protein?
**A.** 56.7 ± 3.17 s⁻¹

**Q.** What about the kcat/Km (enzyme Bt3130, pH 7.0) of the same protein?
**A.** 112000 M⁻¹ s⁻¹

B2: Bt3963 (Bacteroides thetaiotaomicron VPI-5482) (protein)
chain: QQPVDYVNPIIGTNGMGHTFPGACTPFGWVQLSPDTDTIPHNVNGAYQKNAYEYCAGYQYRDKTIVGFSHTHLSGTGHSDLGDILLMPAVGDVKLNPGRADHPEEGYRSRFDHATEKATPGYYEVMLDDYGIKAQLTATQRTGVHKYTFPKGKDGHLILDLVHGIYNYDGKVLWANLRVENDTLLTGYRITNGWARTNYTYFAISLSQPIKDYGYKDKEKVLYNGFWRRFKLEKNFPEITGRKIVAYFNFETAKDPELVVKVALSAVSTEGAVKNLRAEASGKSFEQLAEAARTDWNNELDHFEIEGTPDQKAMFYTSLYHTMINPSVYMDVDGSYRGLDHNIHQAKGFTNYTIFSLWDTYRAEHPFLNLVKPERNADMVESMIKHEQQSVHGMLPIWSLMGNENWCMSGYHAVSVLADAITKGVFSNVDEALSAMVSTSTVPYYEGVADYMKLGYIPLDKSGTAASSTLEYAYDDWTIYQTALKAGNKEIADTYRKRALNYRNIYDTSIGFARPRYSDGTFKKEFDVLQTYGEGFIEGNSWNFSFHVPHDVFGMIDLMGGEKTFVQKLDELFSMHLPEKYYEHNEDITEECLVGGYVHGNEPSHHVPYLYAWTSQPWKTQYWLREILNKMYKNDINGLGGNDDCGQMSAWYLFSVMGFYPVCPGTDQYVLGAPYLPYLKLTLPNGKTLEIKAPGVSDKKRYVQSLKLNGESYDKMYITHEDILKGGVLEFKMSASPNKRRGVSVQDKPYSLTNGIN
**Q.** For B2, which Km (enzyme Bt3963, pH 7.0) is on record?
**A.** 0.79 ± 0.08 mM

**Q.** And the kcat (enzyme Bt3963, pH 7.0)?
**A.** 0.00045 ± 1.67e-05 s⁻¹

**Q.** What about the kcat/Km (enzyme Bt3963, pH 7.0) of the same protein?
**A.** 0.567 M⁻¹ s⁻¹

B3: Bt3991 (Bacteroides thetaiotaomicron VPI-5482) (protein)
chain: MKLKTLLIGCFGGFIMLNSCTESPSVKDYSAYVNPFIGTGGHGHTFPGAVVPHGMIQPSPDTRIDGWDACSGYYYDDNTINGFSHTHVSGTGCCDYGDVLLMPTVGKPQYLTTDPESQKLAYASAFSHENETAEPGYYSVFLDTYQVKAEITATKRGAIHRYTFPESTESGFIIDLDYSLQRQTNYEMEIEVISDTEICGHKKTTYWAFDQYINFYAKFSKPFAYTLITDSVTMDNGKRLPVCKAVLHFNTKKDEEVLVKVGVSAVDIAGARKNVESEIPEWDFDKVRKDARTAWNNYLSKIDITTSDKEDKTIFYTALYHTAISPNLFTDADGRYLGMDLEVHQGDTINPLYTVFSLWDTFRALHPLMTIIDPNLNNQFINSLIRKHQEGGIYPMWDLASNYTGTMIGYHAVPVIVDAYMKGYRNFDAHEAYKASLRAAEYDTTGIKCPDLVLPHLMPKAKYYKNAIGYIPCDRENESVAKALEYAYDDWCISIFAEAMNDFENKAKYERFAKAYEFYFDKSTRFMRGLDSNGEWRTPFNPRASTHRSDDYCEGTAWQWTWFVPHDVEGLVKLMGGEDAFVEKLDSLFTVDSSLDGETTSADISGLIGQYAHGNEPSHHVIHLYNYVNRPWRTQELVDSVYRSQYANNVDGLSGNEDCGQMSAWYILNSMGFYQVCPGKPVYSIGRPAFDKAVINLPGEKTFSIVAKNNSKSNKYIESVLLNGKPLDTPFFGHQDIVAGGVMEIRMTDHPTQWGVRQ
**Q.** Which results are given for B3?
**A.** kcat (enzyme Bt3991, pH 7.0): 0.0025 ± 0.00035 s⁻¹; kcat/Km (enzyme Bt3991, pH 7.0): 0.917 M⁻¹ s⁻¹
